Laboratory results published in paper PMC9121323, “Using fluorescence anisotropy to monitor chaperone dispersal of RNA-binding protein condensates”.

Biological target: Pab1 monomer (poly(A)-binding protein) (Saccharomyces cerevisiae, UniProt P04147 1-577)
Test: fluorescence anisotropy; monomer calibration, titration regime; Kd cannot be determined; 1x disaggregation buffer (composition not in the material), 30 C, 15 uL samples, fluorescein ex/em 485/535 nm; 0.2 uM A19 RNA used for gain setting
Conditions: protein: recombinant; tags: 8xHis-TEV site tag, removed by TEV protease; label: 5' 6-FAM; single strand

Chain of Pab1 monomer (poly(A)-binding protein) (P04147 whole entry): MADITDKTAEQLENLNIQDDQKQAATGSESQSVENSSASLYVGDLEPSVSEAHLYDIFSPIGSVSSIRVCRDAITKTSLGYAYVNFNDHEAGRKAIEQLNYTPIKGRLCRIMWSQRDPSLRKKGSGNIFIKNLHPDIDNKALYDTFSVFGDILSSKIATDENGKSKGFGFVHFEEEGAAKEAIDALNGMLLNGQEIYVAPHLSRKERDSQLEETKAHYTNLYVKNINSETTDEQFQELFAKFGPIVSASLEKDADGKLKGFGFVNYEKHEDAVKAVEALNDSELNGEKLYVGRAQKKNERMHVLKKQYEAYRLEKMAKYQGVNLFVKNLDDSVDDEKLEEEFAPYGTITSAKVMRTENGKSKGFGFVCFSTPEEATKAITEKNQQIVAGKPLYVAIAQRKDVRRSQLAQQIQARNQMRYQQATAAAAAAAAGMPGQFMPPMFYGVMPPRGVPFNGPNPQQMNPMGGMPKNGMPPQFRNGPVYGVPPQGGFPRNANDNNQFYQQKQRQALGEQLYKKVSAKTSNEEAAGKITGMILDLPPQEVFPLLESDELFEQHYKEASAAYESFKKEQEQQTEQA

Q: Does AAAAAAAAAAAAAAAAAAA (ssRNA) [Fluorescein-A19 RNA] bind?
A: binds
